In article PMC11603075:

Target: KDM4E (human)

Substance | KM of KDM4E catalysed demethylation, formaldehyde dehydrogenase (FDH) coupled assay [µM]
H2a(1–20)R3me2a (from UniProt P0C0S8 2-21) (peptide) | 5.18
H3(1–21)R2me2a (from UniProt P68431 2-22) (peptide) | 20.7
